Assay results from article PMC6748613 (mAbs, 2019).

Target: vascular endothelial growth factor (VEGF)-A, isoform 165 (Homo sapiens, UniProt P15692-4)
Assay: SPR

| Binder | ΔΔG_bind against the parental Fab |
| --- | --- |
| bH1 Fab variant Y^H33-M^H98-M^H99-R^L30b (Fab, V domains shown) VH: not shown VL: DIQMTQSPSSLSASVGDRVTITCRASQDIPRRISGYVAWYQQKPGKAPKLLIYWGSYLYSGVPSRFSGSGSGTDFTLTISSLQPEDFATYYCQQHYTTPPTFGQGTKVEIK | -1.71 kcal/mol |
| bH1 Fab variant Y^H33-M^H98-D^H99-R^L30b (Fab, V domains shown) VH: not shown VL: DIQMTQSPSSLSASVGDRVTITCRASQDIPRRISGYVAWYQQKPGKAPKLLIYWGSYLYSGVPSRFSGSGSGTDFTLTISSLQPEDFATYYCQQHYTTPPTFGQGTKVEIK | -1.58 kcal/mol |
| bH1 Fab variant W^H33-M^H98-M^H99-R^L30b (Fab, V domains shown) VH: EVQLVESGGGLVQPGGSLRLSCAASGFNIKDTWIHWVRQAPGKGLEWVARIYPTNGYTRYADSVKGRFTISADTSKNTAYLQMNSLRAEDTAVYYCSRWGGMMFYAMDYWGQGTLVTVSS VL: DIQMTQSPSSLSASVGDRVTITCRASQDIPRRISGYVAWYQQKPGKAPKLLIYWGSYLYSGVPSRFSGSGSGTDFTLTISSLQPEDFATYYCQQHYTTPPTFGQGTKVEIK | -2.27 kcal/mol |
| bH1 Fab variant W^H33-W^H98-M^H99-R^L30b (Fab, V domains shown) VH: EVQLVESGGGLVQPGGSLRLSCAASGFNIKDTWIHWVRQAPGKGLEWVARIYPTNGYTRYADSVKGRFTISADTSKNTAYLQMNSLRAEDTAVYYCSRWGGWMFYAMDYWGQGTLVTVSS VL: DIQMTQSPSSLSASVGDRVTITCRASQDIPRRISGYVAWYQQKPGKAPKLLIYWGSYLYSGVPSRFSGSGSGTDFTLTISSLQPEDFATYYCQQHYTTPPTFGQGTKVEIK | -2.07 kcal/mol |
| bH1 Fab variant Y^H33-W^H98-D^H99-R^L30b (Fab, V domains shown) VH: not shown VL: DIQMTQSPSSLSASVGDRVTITCRASQDIPRRISGYVAWYQQKPGKAPKLLIYWGSYLYSGVPSRFSGSGSGTDFTLTISSLQPEDFATYYCQQHYTTPPTFGQGTKVEIK | -1.88 kcal/mol |
| bH1 Fab variant W^H33-M^H98-G^H99-R^L30b (Fab, V domains shown) VH: not shown VL: DIQMTQSPSSLSASVGDRVTITCRASQDIPRRISGYVAWYQQKPGKAPKLLIYWGSYLYSGVPSRFSGSGSGTDFTLTISSLQPEDFATYYCQQHYTTPPTFGQGTKVEIK | -1.51 kcal/mol |

Now from value to binder:

| ΔΔG_bind against the parental Fab | Binder |
| --- | --- |
| -2.04 kcal/mol | bH1 Fab variant W^H33-F^H98-D^H99-R^L30b (Fab, V domains shown) VH: EVQLVESGGGLVQPGGSLRLSCAASGFNIKDTWIHWVRQAPGKGLEWVARIYPTNGYTRYADSVKGRFTISADTSKNTAYLQMNSLRAEDTAVYYCSRWGGFDFYAMDYWGQGTLVTVSS VL: DIQMTQSPSSLSASVGDRVTITCRASQDIPRRISGYVAWYQQKPGKAPKLLIYWGSYLYSGVPSRFSGSGSGTDFTLTISSLQPEDFATYYCQQHYTTPPTFGQGTKVEIK |
| -1.09 kcal/mol | bH1 Fab variant W^H33-F^H98-G^H99-R^L30b (Fab, V domains shown) VH: not shown VL: DIQMTQSPSSLSASVGDRVTITCRASQDIPRRISGYVAWYQQKPGKAPKLLIYWGSYLYSGVPSRFSGSGSGTDFTLTISSLQPEDFATYYCQQHYTTPPTFGQGTKVEIK |
| -1.89 kcal/mol | bH1 Fab variant W^H33-M^H98-D^H99-R^L30b (Fab, V domains shown) VH: EVQLVESGGGLVQPGGSLRLSCAASGFNIKDTWIHWVRQAPGKGLEWVARIYPTNGYTRYADSVKGRFTISADTSKNTAYLQMNSLRAEDTAVYYCSRWGGMDFYAMDYWGQGTLVTVSS VL: DIQMTQSPSSLSASVGDRVTITCRASQDIPRRISGYVAWYQQKPGKAPKLLIYWGSYLYSGVPSRFSGSGSGTDFTLTISSLQPEDFATYYCQQHYTTPPTFGQGTKVEIK |
| -2.57 kcal/mol | bH1 Fab variant W^H33-W^H98-D^H99-R^L30b (Fab, V domains shown) VH: EVQLVESGGGLVQPGGSLRLSCAASGFNIKDTWIHWVRQAPGKGLEWVARIYPTNGYTRYADSVKGRFTISADTSKNTAYLQMNSLRAEDTAVYYCSRWGGWDFYAMDYWGQGTLVTVSS VL: DIQMTQSPSSLSASVGDRVTITCRASQDIPRRISGYVAWYQQKPGKAPKLLIYWGSYLYSGVPSRFSGSGSGTDFTLTISSLQPEDFATYYCQQHYTTPPTFGQGTKVEIK |
| -0.97 kcal/mol | bH1 Fab variant Y^H33-W^H98-R^H99-R^L30b (Fab, V domains shown) VH: not shown VL: DIQMTQSPSSLSASVGDRVTITCRASQDIPRRISGYVAWYQQKPGKAPKLLIYWGSYLYSGVPSRFSGSGSGTDFTLTISSLQPEDFATYYCQQHYTTPPTFGQGTKVEIK |
